Consider four molecules from US20100119588A1.

No end group written: not given here.

The target of experiment [1] is hemagglutinin H3 (GM3 inhibition ELISA, strain not stated).
In experiment [2] the target is hemagglutinin (HA) of influenza virus type A subtype H3 A/Wuhan/359/95 (H3N2), ether extract (influenza virus type A, A/Wuhan/359/95 (H3N2)).
In experiment [3] the target is hemagglutinin (HA) of influenza virus type A subtype H1 A/PR/8/34 (H1N1), ether extract (influenza virus type A, A/PR/8/34 (H1N1)), P03452. As to the kind of experiment: phage ELISA, HA immobilised on plate, normalised to A-1 = 1. For orientation: An ELISA detects its analyte on a solid surface through an enzyme-linked reagent.
For experiment [4], the target named is hemagglutinin (HA) of influenza virus type A subtype H3 A/Wuhan/359/95 (H3N2), ether extract (influenza virus type A, A/Wuhan/359/95 (H3N2)). Described as above.

Regarding ARLSPTMVHPNGAQP-NH2 [A-1 peptide, chemosynthesized, …-NH2], in experiment [1], the IC50 (in general, the concentration needed to halve the response being measured) came to 1.9 mM.
For the molecule ARLPRTMVHPKPAQP-NH2 [s-2 peptide, chemosynthesized, …-NH2], the fold binding relative to A-1 in experiment [2] was 2.1 fold.
With ARLPRTMVHPKPAQP (modifications not checked) [filamentous phage fd presenting peptide s-2 (SEQ ID NO: 3)], the fold binding activity relative to A-1 in experiment [3] and in experiment [4] was 3 fold throughout.
For ARLPPTMVRPNGPQP-NH2 [e-1 peptide, chemosynthesized, …-NH2], the fold binding relative to A-1 in experiment [2] was found to be 1.2 fold.
